Assay results: patent US20230088461A1 (NANJING LEGEND BIOTECH, published 2023)
Read-outs that look alike come from different tables or passages of the source.

Key:
[1] = target: T1, GPC3 (analyte of Tables 9 and 10) (UniProt P51654 25-559, limits assumed); assay: SPR (Biacore T200), purified antibody captured through Fc, GPC3 as analyte, 1:1 model
Description: (§1) Antibodies were immobilized on the sensor chip through Fc capture method. GPC3 was used as the analyte. The surface was regenerated before the injection of another antibody. The process was repeated until all antibodies are analyzed. The off-rates of antibodies were obtained from fitting the experimental data locally to 1:1 interaction model using the Biacore T200 evaluation software. The data of dissociation (kd) and association (ka) rate constants (KD) were calculated from the ration of kd over ka.

[2] = target: T1, GPC3 (analyte of Tables 9 and 10); assay: as above; remark: listed apart in the source
Description: as §1

[3] = target: T2, cynomolgus monkey GPC3 on SK-HEP-1-cmGPC3 cells (cynomolgus monkey, UniProt A0A2K5VK50 24-553); assay: flow cytometry on SK-HEP-1-cmGPC3 cells, PE anti-mouse IgG Fc; also: test concentration or dose not given here
T2 construct: whole, on cells

[4] = target: T3, human GPC3 on SK-HEP-1-huGPC3 cells (human, UniProt P51654 25-554); assay: flow cytometry on SK-HEP-1-huGPC3 cells, PE anti-mouse IgG Fc; also: test concentration or dose not given here
T3 construct: whole, on cells

[5] = target: T4, recombinant human GPC3 (human, UniProt P51654 25-559, limits assumed); assay: SPR (Biacore), antibody as ligand, recombinant human GPC3 as analyte, 1:1 Langmuir model
T4 construct: also called hGPC3
Description: The binding kinetics of the antibodies to recombinant human GPC3 were measured by the surface plasmon resonance (SPR) (e.g., Biacore). Binding rate (Kₐ) and dissociation rates (Kd) were calculated using a simple one-to-one Langmuir binding model (Biacore Evaluation Software). The equilibrium dissociation constant (KD) is calculated as the ratio Kd/Kₐ.

[6] = target: T5, mouse GPC3 on SK-HEP-1-muGPC3 cells (mouse, UniProt Q8CFZ4 25-553); assay: flow cytometry on SK-HEP-1-muGPC3 cells, PE anti-mouse IgG Fc; also: test concentration or dose not given here
T5 construct: whole, on cells
T5 sequence (Q8CFZ4 25-553 limits assumed): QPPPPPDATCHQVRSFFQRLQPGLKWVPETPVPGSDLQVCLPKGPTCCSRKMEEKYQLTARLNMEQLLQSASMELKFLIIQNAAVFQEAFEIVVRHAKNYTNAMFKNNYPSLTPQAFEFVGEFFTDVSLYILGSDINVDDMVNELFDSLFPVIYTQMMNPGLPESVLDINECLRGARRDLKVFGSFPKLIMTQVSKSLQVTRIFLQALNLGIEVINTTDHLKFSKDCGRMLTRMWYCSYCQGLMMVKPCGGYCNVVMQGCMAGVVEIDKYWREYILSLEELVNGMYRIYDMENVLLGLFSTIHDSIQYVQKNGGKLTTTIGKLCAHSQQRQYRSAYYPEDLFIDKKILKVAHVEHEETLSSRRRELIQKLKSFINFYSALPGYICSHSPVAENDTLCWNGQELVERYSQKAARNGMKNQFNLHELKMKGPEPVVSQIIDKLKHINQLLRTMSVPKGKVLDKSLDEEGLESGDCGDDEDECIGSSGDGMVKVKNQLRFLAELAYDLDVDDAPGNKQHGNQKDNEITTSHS

Kd [1] [nM]	koff [1] [s⁻¹]	kon [1] [M⁻¹ s⁻¹]	Kd [2] [nM]	koff [2] [s⁻¹]	kon [2] [M⁻¹ s⁻¹]	Positive population, % [3] [%]	Positive population, % [4] [%]	Kd [5] [nM]	koff [5] [s⁻¹]	kon [5] [M⁻¹ s⁻¹]	Positive population, % [6] [%]	Binder
1.53	0.00014	91300										9VH1VL3-hIgG1 (antibody, V domains shown, Humanized LAb19309, full-length human IgG1/kappa; also called 9VH1VL3-hIgG1 mAb) VH: QVQLVQSGAEVKKPGASVKVSCKASGYTFTDYEMHWVRQAPGQRLEWMGGIDPETGNTAYSQKFKGRVTITRDTSASTAYMELSSLRSEDTAVYYCARYYSFAYWGQGTLVTVSS VL: DIVMTQSPDSLAVSLGERATINCRSSQTIVHSNGNTYLEWYQQKPGQPPKLLIYKVSNRFSGVPDRFSGSGSGTDFTLTISSLQAEDVAVYYCFQVSHVPYTFGGGTKLEIKR
			0.572	8.91e-05	156000							5VH2VL2-hIgG1 (antibody, V domains shown, Humanized LAb19305, full-length human IgG1/kappa) VH: QVQLVQSGAEVKKPGASVKVSCKASGYTFTAYEMHWVRQAPGQGLEWMGGIDPETGNTAYSQNFKGRVTMTRDTSTSTVYMELSSLRSEDTAVYYCARYYSFAYWGQGTLVTVSS VL: DIVMTQSPLSLPVTPGEPASISCRSSQTIVHSNGNTYLEWYLQKPGQSPQLLIYKVSNRFSGVPDRFSGSGSGTDFTLKISRVEAEDVGVYYCFQVSHVPYTFGGGTKLEIKR
			1.1	0.000117	107000							5VH1VL2-hIgG1 (antibody, V domains shown, Humanized LAb19305, full-length human IgG1/kappa) VH: QVQLVQSGAEVKKPGASVKVSCKASGYTFTAYEMHWVRQAPGQRLEWMGGIDPETGNTAYSQNFKGRVTITRDTSASTAYMELSSLRSEDTAVYYCARYYSFAYWGQGTLVTVSS VL: DIVMTQSPLSLPVTPGEPASISCRSSQTIVHSNGNTYLEWYLQKPGQSPQLLIYKVSNRFSGVPDRFSGSGSGTDFTLKISRVEAEDVGVYYCFQVSHVPYTFGGGTKLEIKR
1.13	0.000145	129000										9VH3VL3-hIgG1 (antibody, V domains shown, Humanized LAb19309, full-length human IgG1/kappa) VH: QVQLVQSGAEVKKPGASVKVSCKASGYTFTDYEMHWVRQATGQGLEWMGGIDPETGNTAYSQKFKGRVTMTRNTSISTAYMELSSLRSEDTAVYYCARYYSFAYWGQGTLVTVSS VL: DIVMTQSPDSLAVSLGERATINCRSSQTIVHSNGNTYLEWYQQKPGQPPKLLIYKVSNRFSGVPDRFSGSGSGTDFTLTISSLQAEDVAVYYCFQVSHVPYTFGGGTKLEIKR
			0.544	8.76e-05	161000							5VH2VL3-hIgG1 (antibody, V domains shown, Humanized LAb19305, full-length human IgG1/kappa) VH: QVQLVQSGAEVKKPGASVKVSCKASGYTFTAYEMHWVRQAPGQGLEWMGGIDPETGNTAYSQNFKGRVTMTRDTSTSTVYMELSSLRSEDTAVYYCARYYSFAYWGQGTLVTVSS VL: DIVMTQSPDSLAVSLGERATINCRSSQTIVHSNGNTYLEWYQQKPGQPPKLLIYKVSNRFSGVPDRFSGSGSGTDFTLTISSLQAEDVAVYYCFQVSHVPYTFGGGTKLEIKR
0.672	9.01e-05	134000										9VH3VL2-hIgG1 (antibody, V domains shown, Humanized LAb19309, full-length human IgG1/kappa; also called 9VH3VL2-hIgG1 mAb) VH: QVQLVQSGAEVKKPGASVKVSCKASGYTFTDYEMHWVRQATGQGLEWMGGIDPETGNTAYSQKFKGRVTMTRNTSISTAYMELSSLRSEDTAVYYCARYYSFAYWGQGTLVTVSS VL: DIVMTQSPLSLPVTPGEPASISCRSSQTIVHSNGNTYLEWYLQKPGQSPQLLIYKVSNRFSGVPDRFSGSGSGTDFTLKISRVEAEDVGVYYCFQVSHVPYTFGGGTKLEIKR
						18.5	72.6	122	0.00207	16900	17.5	LAb19301 (antibody, V domains shown, Mouse monoclonal antibody purified from hybridoma supernatant) VH: DVQLQESGPDLVKPSQSLSLTCTVTGYSITSGFSWHWIRQFPGHKLEWMGFMQYSGNTNYNPSLKSRISFTRDTSKNQFFLQLKSVTPEDTATYYCARREEGAWFAYWGQGTLVTVSA VL: DVVMTQTPLSLPVSLGDQASISCGSSQSLVHSNGNTYLHWYLQKPGQSPKLLIYKVSNRFSGVPDRFSGSGSGTDFTLKISRVEAEDLGVYFCSQSTHFPFTFGSGTKLEIK
						3.32	86.2	28.4	0.00077	27100	75.8	LAb19306 (antibody, V domains shown, Mouse monoclonal antibody purified from hybridoma supernatant) VH: EVQLVESGGGLVKPGGSLKLSCAASGFAFSTYDMSWVRQTPERRLEWVAYISSGGATTYYPDSVKGRFTISRDNAKNTLYLQMSSLKSEDTAMYYCARLSLMIRGWFAYWGQGTLVTVSA VL: DVVMTQTPLSLPVSLGDQASISCRSSQSLVHSNGNTYLHWYLQKPGQSPKLLIYKVSNRFSGVPDRFSGSGSGTDFTLKISRVEAEDLGVYFCSQSTHVPYTFGGGTKLEIK
						11.6	92.9	58.7	0.00178	30200	83.3	LAb19307 (antibody, V domains shown, Mouse monoclonal antibody purified from hybridoma supernatant) VH: EVQLVESGGDLVKPGGSLKLSCAASGFAFGTYDMSWVRQTPEKRLEWVAYISSGGNSPYYPQTVKGRFTISRDNAKNTLYLQMSSLKSEDTAMYYCARQNIARRGAMDFWGQGASVTVSS VL: DVVLTQSPLSQPVSLGDQASISCTSSQSLLHSNGNTYLHWYLQKPGQSPKLLIYKVSNRFSGVPDRFSGSGSGTDFTLKISRVEAEDLGVYFCSQSTHVPPTFGGGTKLEIK
						9.55	91.4	41.4	0.00102	24700	82.4	LAb19308 (antibody, V domains shown, Mouse monoclonal antibody purified from hybridoma supernatant) VH: EVQLVESGGGLVKPGGSLKLSCAASGFAFITYGMSWVRQTPEKRLEWVAYISSGGANTYYPDSVKGRFTISRDNAKNTLYLQMSSLKSEDTAMYYCASLSTLVRGWFAYWGQGTLVTVSA VL: DVVMTQTPLSLPVSLGDQASISCRSSQSLVHSNGNTYLHWYLQKPGQSPKLLIYKVSNRFSGVPDRFSGSGSGTDFTLKISRVEAEDLGVYFCSQSTHVPYTFGGGTKLEIK
						12.3	91.5	71.2	0.00184	25800	81.8	LAb19302 (antibody, V domains shown, Mouse monoclonal antibody purified from hybridoma supernatant) VH: AVQLVESGGGLVRPGGSLKLSCAASGFAFSTYGMSWVRQTPETRLEWVAYISSGGATTYYPDSVKGRFTISRDNAKNTLYLQMSSLKSEDTAMYYCASLSIMIRGWFAYWGQGTLVTVSA VL: DVVMTQTPLSLPVSLGDQASISCRSSQSLVHSNGNTYLHWYLQKPGQSPKVLIYKVSNRFSGVPDRFSGSGSGTDFTLKISRVEAEDLGVYFCSQSTHVPYTFGGGTKLEIK
3.56	0.000239	67100										Chimeric LAb19309-hIgG1 (antibody, V domains shown, The mouse VH/VL numbers follow the parallel order of the lists, as for LAb19309) VH: QVQLQQSGAELVRPGASVTLSCKASGYTFTDYEMHWVKQTPVHGLEWIGGIDPETGNTAYSQKFKGKATLTADKSSSTAYMEVRSLTSEDSAVYYCTRYYSFAYWGQGTLVTVSA VL: DVLMTQTPLSLPVNLGDQASISCRSSQTIVHSNGNTYLEWYLQKPGQSPKLLIYKVSNRFSGVPDRFSGSGSGTDFTLRISRVEAEDLGVYYCFQVSHVPYTFGGGTKLEIKR
											0.72	LAb19303 (antibody, V domains shown, Mouse monoclonal antibody purified from hybridoma supernatant) VH: QVQLQQSGAELVRPGASVTLSCEASGYTFNDYEMHWVKQTPVHGLEWIGAIDPETGATAYNQKFKGKATLTADKSSSTAYMELRSLTSEDTAVYYCTRYYSFAYWGQGTLVTVSA VL: DVLMTQTPLSLPVSLGDQASISCRSSQSFVHSNGNTYLQWYLQKPGQSPKLLIYKVSNRFSGVPDRFSGSGSGTDFTLKISRVEAEDLGVYYCFQGSHVPYTFGGGTKLEIK
						94.6	91.9	5.11	0.000138	27000	25.6	LAb19304 (antibody, V domains shown, Mouse monoclonal antibody purified from hybridoma supernatant) VH: QVQLQQSGAELVRPGASVTLSCKASGYTFTAYEMHWVKQTPVHGLEWIGGIDPETGNTAYSQKFKGKATLTADKSSSTAYMEVRSLTSEDSAVYYCSRYYSFAYWGQGTLVTVSA VL: DVLMTQTPLSLPVSLGDQASISCRSSQTIVHSNGNTYLEWYLQKPGQSPKLLIYKVSNRFSGVPDRFSGSGSGTDFTLKISRVEAEDLGVYYCFQVSHVPYTFGGGTKLEIK
						94.2	92.6	4.19	0.00013	31100	17	LAb19305 (antibody, V domains shown, Mouse monoclonal antibody purified from hybridoma supernatant) VH: QVQLQQSGAELVRPGASVTLSCKASGYTFTAYEMHWVKQTPVYGLEWIGGIDPETGNTAYSQNFKGKATLTADKSSSTAYMEVRSLTSEDSAVYYCSRYYSFAYWGQGTLVTVSA VL: DVLMTQTPLSLPVSLGDQASISCRSSQTIVHSNGNTYLEWYLQKPGQSPKLLIYKVSNRFSGVPDRFSGSGSGTDFTLKISRVEAEDLGVYYCFQVSHVPYTFGGGTKLEIK
						91.9	92.7	8.38	0.000195	23300	1.02	LAb19309 (antibody, V domains shown, Mouse monoclonal antibody purified from hybridoma supernatant) VH: QVQLQQSGAELVRPGASVTLSCKASGYTFTDYEMHWVKQTPVHGLEWIGGIDPETGNTAYSQKFKGKATLTADKSSSTAYMEVRSLTSEDSAVYYCTRYYSFAYWGQGTLVTVSA VL: DVLMTQTPLSLPVNLGDQASISCRSSQTIVHSNGNTYLEWYLQKPGQSPKLLIYKVSNRFSGVPDRFSGSGSGTDFTLRISRVEAEDLGVYYCFQVSHVPYTFGGGTKLEIK
			0.84	0.000103	123000							Chimeric LAb19305-hIgG1 (antibody, V domains shown, The mouse VH/VL numbers follow the parallel order of the lists, as for LAb19305) VH: QVQLQQSGAELVRPGASVTLSCKASGYTFTAYEMHWVKQTPVYGLEWIGGIDPETGNTAYSQNFKGKATLTADKSSSTAYMEVRSLTSEDSAVYYCSRYYSFAYWGQGTLVTVSA VL: DVLMTQTPLSLPVSLGDQASISCRSSQTIVHSNGNTYLEWYLQKPGQSPKLLIYKVSNRFSGVPDRFSGSGSGTDFTLKISRVEAEDLGVYYCFQVSHVPYTFGGGTKLEIKR
